Target: L363 antibody (anti-CD1d-α-GalCer)
Assay: SPR

Row | Substance | Kd [µM] | koff [s⁻¹] | kon [M⁻¹ s⁻¹]
1 | CD1d loaded with α-GluCer (from UniProt P11609 22-297; P01887 21-119) (complex) | 5.02 | 0.471 | 93700
2 | CD1d loaded with α-GalCer (from UniProt P11609 22-297; P01887 21-119) (complex) | 0.0967 |  | 85700
3 | CD1d loaded with C24:1 α-GalCer (from UniProt P11609 22-297; P01887 21-119) (complex) | 0.35 |  | 142000
4 | CD1d loaded with α-lyso-glucosylceramide (α-glucopsychosine) (from UniProt P11609 22-297; P01887 21-119) (complex) | 8.14 | 0.115 | 4590
5 | CD1d loaded with α-lyso-galactosylceramide (α-psychosine) (from UniProt P11609 22-297; P01887 21-119) (complex) | 2.23 |  | 943000

Reference: publication PMC4220304
